Measurements taken from PMC6996132 (Cell Reports, 2020).

Target: the molecule itself
Test: amyloid aggregation

Row | Protein | binding result
1 | His-SUMO-hnRNPDL isoform 2 D259N (natural protein, human) MEDMNEYSNIEEFAEGSKINASKNQQDDGKMFIGGLSWDTSKKDLTEYLSRFGEVVDCTIKTDPVTGRSRGFGFVLFKDAASVDKVLELKEHKLDGKLIDPKRAKALKGKEPPKKVFVGGLSPDTSEEQIKEYFGAFGEIENIELPMDTKTNERRGFCFITYTDEEPVKKLLESRYHQIGSGKCEIKVAQPKEVYRQQQQQQKGGRGAAAGGRGGTRGRGRGQGQNWNQGFNNYYDQGYGNYNSAYGGDQNYSGYGGYNYTGYNYGNYGYGQGYADYSGQQSTYGKASRGGGNHQNNYQPY | binds
2 | His-SUMO-hnRNPDL isoform 2 D259H (natural protein, human) MEDMNEYSNIEEFAEGSKINASKNQQDDGKMFIGGLSWDTSKKDLTEYLSRFGEVVDCTIKTDPVTGRSRGFGFVLFKDAASVDKVLELKEHKLDGKLIDPKRAKALKGKEPPKKVFVGGLSPDTSEEQIKEYFGAFGEIENIELPMDTKTNERRGFCFITYTDEEPVKKLLESRYHQIGSGKCEIKVAQPKEVYRQQQQQQKGGRGAAAGGRGGTRGRGRGQGQNWNQGFNNYYDQGYGNYNSAYGGDQNYSGYGGYHYTGYNYGNYGYGQGYADYSGQQSTYGKASRGGGNHQNNYQPY | binds
